Results as given in patent US20040161776A1 (PSMA DEVELOPMENT, published 2004).
One block for each binder: values may come before it.

Tests used:
[1] = target: T1, recombinant soluble PSMA (rsPSMA) (human, UniProt Q04609 44-750); assay: Biacore, mAb captured on anti-human IgG, rsPSMA in flow; crude supernatant
T1 construct: Oligomeric state of the preparation not specified in the assay concerned; also called secreted rsPSMA; PSMAECTO
Method: (§1) To determine the kinetics and affinity of the antibodies, the antibodies in crude supernatants, in purified form and in bifunctional chelate modified forms were analyzed using a Biacore 3000 instrument (Biacore Inc., Piscataway, N.J.). Biacore 3000 is a fully automated surface plasmon resonance (SPR)-based biosensor system that is designed to provide real-time kinetic data from assay formats that require no tags or labeling of compounds for biomolecular interactions. It is ideal for screening crude supernatants.
(§2) The streptavidin-coated sensor chips (SA chips, Biacore) were used to capture biotinylated anti-human IgG antibody (Sigma, St. Louis, Mo.). The entire sensor chip surface was conditioned with five injections of conditioning solution (1 M NaCl, 50 mM NaOH) and equilibrated with PBS buffer containing 0.005% polysorbate 20. Two to three thousand resonance units (RU) of biotinylated anti-human IgG antibody (Sigma) were immobilized onto the SA chip followed by an injection of regeneration buffer (glycine-HCl, pH 2.2). […] For each antibody at one concentration, the chip was regenerated and equilibrated. […] Thermodynamic and kinetic rate constants of binding were calculated using the Biacore Evaluation software.

[2] = target: T1, recombinant soluble PSMA (rsPSMA); assay: Biacore, purified mAb captured, rsPSMA in flow
Method: as §1, §2

[3] = target: T2, prostate specific membrane antigen (PSMA), full-length human (human, UniProt Q04609 1-750); assay: cell-based or functional assay
[4] = target: T2, prostate specific membrane antigen …; assay: cell-based or functional assay; remark: listed apart in the source

T2 sequence (Q04609 whole entry): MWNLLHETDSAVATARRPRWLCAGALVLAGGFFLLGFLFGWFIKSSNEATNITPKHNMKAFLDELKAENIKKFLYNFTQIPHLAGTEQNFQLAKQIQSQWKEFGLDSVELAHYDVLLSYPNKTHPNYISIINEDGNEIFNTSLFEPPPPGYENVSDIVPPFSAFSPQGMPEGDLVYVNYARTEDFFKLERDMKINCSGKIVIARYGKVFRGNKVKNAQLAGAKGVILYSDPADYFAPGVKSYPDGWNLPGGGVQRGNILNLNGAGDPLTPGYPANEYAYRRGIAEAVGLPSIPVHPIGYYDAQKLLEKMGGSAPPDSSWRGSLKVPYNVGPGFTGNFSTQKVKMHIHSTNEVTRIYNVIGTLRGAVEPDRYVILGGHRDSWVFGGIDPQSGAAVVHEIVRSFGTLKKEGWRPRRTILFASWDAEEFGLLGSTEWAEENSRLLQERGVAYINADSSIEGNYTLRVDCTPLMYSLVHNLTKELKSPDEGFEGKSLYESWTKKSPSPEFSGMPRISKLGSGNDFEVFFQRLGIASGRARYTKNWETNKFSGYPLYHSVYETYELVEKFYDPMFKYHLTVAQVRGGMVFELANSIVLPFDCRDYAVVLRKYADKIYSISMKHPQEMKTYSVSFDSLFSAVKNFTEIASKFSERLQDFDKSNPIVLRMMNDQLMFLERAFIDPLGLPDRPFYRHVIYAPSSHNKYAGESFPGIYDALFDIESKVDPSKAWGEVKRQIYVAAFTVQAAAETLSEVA
T1 sequence (Q04609 44-750): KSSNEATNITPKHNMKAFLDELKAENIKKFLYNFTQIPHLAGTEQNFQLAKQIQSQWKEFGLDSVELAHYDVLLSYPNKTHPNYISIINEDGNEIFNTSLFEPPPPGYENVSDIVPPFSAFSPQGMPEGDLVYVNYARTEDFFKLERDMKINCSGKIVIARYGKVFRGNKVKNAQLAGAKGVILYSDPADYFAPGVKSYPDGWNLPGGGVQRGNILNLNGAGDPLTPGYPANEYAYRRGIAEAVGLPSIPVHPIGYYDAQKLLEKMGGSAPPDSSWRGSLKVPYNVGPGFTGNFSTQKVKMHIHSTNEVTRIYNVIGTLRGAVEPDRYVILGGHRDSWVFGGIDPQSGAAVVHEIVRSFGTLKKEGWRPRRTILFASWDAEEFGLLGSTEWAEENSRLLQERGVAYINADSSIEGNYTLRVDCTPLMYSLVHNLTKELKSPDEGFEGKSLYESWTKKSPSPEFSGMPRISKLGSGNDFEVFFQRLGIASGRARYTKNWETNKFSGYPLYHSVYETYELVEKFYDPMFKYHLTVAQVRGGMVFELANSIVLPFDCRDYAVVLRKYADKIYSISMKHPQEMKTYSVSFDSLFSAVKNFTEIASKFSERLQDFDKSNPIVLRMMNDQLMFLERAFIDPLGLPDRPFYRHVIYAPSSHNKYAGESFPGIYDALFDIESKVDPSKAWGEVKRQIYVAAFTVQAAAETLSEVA

koff [1]: 0.000363 s⁻¹
Kd [2]: 0.217 nM
B1: PSMA 10.3 (antibody, V domains shown)
VH: QEQLVESGGGVVQPGRSLRLSCAASGFTFSTYGMHWVRQAPGKGLEWVAVTWHDGSNKYYADSVKGRFTISRDNSKNTLYLQMNSLRAEDTAVYYCARGGVGATYYYYYGMDVWGQGTTVTVSS
VL: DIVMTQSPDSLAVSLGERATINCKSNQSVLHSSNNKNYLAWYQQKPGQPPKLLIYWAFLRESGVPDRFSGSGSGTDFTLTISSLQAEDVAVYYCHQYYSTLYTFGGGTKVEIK
notes: human antibody from XenoMouse

PSMA+/PSMA- Ratio of tumor uptake, Mean [4]: 4.27
B4: 006 (antibody, V domains shown)
VH: QVQLVESGGGVVQPGRSLRLSCAASGFAFSRYGMHWVRQAPGKGLEWVAVIWYDGSNKYYADSVKGRFTISRDNSKNTQYLQMNSLRAEDTAVYYCARGGDFLYYYYYGMDVWGQGTTVTVSS
VL: DIQMTQSPSSLSASVGDRVTITCRASQGISNYLAWYQQKTGKVPKFLIYEASTLQSGVPSRFSGGGSGTDFTLTISSLQPEDVATYYCQNYNSAPFTFGPGTKVDIK

Continued, binder first:

B2: 225Ac labeled mAb 026 (antibody, human IgG1, V domains shown)
VH: QVQLVESGGGVVQPGRSLRLSCAASGFTFSNYVMHWVRQAPGKGLEWVAIIWYDGSNKYYADSVKGRFTISRDNSKNTLYLQMNSLRAEDTAVYYCAGGYNWNYEYHYYGMDVWGQGTTVTVSS
VL: DIQMTQSPSSLSASVGDRVTITCRASQGITNYLAWFQQKPGKAPKSLIYAASSLQSGVPSKFSGSGSGTDFSLTISSLQPEDFATYYCQQYNSYPITFGQGTRLEIK
modifications: 225Ac chelated by bifunctional DOTA conjugated to the antibody, sites not stated
IC50, cell survival (Alamar Blue) of C4-2 and LNCaP cells [3]: < 1 nCi/mL
IC50, cell survival of C4-2 cells by 3H thymidine incorporation [3]: 0.12 nCi/mL
selectivity of killing, C4-2 vs PC3 [3]: > 50 fold

B3: 026 (antibody, V domains shown)
VH: QVQLVESGGGVVQPGRSLRLSCAASGFTFSNYVMHWVRQAPGKGLEWVAIIWYDGSNKYYADSVKGRFTISRDNSKNTLYLQMNSLRAEDTAVYYCAGGYNWNYEYHYYGMDVWGQGTTVTVSS
VL: DIQMTQSPSSLSASVGDRVTITCRASQGITNYLAWFQQKPGKAPKSLIYAASSLQSGVPSKFSGSGSGTDFSLTISSLQPEDFATYYCQQYNSYPITFGQGTRLEIK
PSMA+/PSMA- Ratio of tumor uptake, Mean [4]: 5.55
